Source: patent US9176064B2, “Bisubstrate fluorescent probes for protein kinase CK2” (University of Tartu, priority 2012, dated 2015)
Where a SMILES comes first, the peptide text is derived from it. [ ]: non-standard residue; d: D form. The star is where a group is joined. X1 = O=C(CCCCCCCn1cnc2c(Br)c(Br)c(Br)c(Br)c21)*

What was measured:
Assay in all cases: Kinase panel residual activity
Format in all cases: biochemical
Settings in all cases: compound at 1 micromolar
TLK1 = molecular target: T1, TLK1 (Homo sapiens, UniProt Q9UKI8)
T1 sequence (Q9UKI8 1-766): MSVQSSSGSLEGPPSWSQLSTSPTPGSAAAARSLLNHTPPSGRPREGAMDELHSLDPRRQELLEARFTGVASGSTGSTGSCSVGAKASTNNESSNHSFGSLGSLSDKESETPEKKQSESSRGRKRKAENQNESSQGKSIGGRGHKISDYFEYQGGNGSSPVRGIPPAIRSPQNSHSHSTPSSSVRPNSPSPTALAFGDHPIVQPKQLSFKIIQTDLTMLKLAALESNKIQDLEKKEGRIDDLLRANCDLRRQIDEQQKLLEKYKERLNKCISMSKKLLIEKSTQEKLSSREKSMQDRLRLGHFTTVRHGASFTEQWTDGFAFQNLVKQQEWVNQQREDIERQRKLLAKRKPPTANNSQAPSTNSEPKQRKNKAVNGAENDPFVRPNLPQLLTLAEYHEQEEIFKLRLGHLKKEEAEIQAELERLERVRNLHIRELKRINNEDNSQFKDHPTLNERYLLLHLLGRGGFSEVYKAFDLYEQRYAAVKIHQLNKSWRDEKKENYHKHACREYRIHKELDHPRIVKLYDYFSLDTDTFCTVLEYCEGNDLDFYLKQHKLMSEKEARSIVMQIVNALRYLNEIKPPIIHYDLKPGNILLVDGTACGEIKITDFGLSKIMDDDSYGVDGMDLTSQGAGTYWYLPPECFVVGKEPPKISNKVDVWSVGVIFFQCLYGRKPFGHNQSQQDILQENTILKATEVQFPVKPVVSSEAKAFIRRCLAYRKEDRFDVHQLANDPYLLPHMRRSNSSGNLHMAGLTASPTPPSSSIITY

MARK4 = molecular target: T2, MARK4 (Homo sapiens, UniProt Q96L34)
T2 sequence (Q96L34 1-752): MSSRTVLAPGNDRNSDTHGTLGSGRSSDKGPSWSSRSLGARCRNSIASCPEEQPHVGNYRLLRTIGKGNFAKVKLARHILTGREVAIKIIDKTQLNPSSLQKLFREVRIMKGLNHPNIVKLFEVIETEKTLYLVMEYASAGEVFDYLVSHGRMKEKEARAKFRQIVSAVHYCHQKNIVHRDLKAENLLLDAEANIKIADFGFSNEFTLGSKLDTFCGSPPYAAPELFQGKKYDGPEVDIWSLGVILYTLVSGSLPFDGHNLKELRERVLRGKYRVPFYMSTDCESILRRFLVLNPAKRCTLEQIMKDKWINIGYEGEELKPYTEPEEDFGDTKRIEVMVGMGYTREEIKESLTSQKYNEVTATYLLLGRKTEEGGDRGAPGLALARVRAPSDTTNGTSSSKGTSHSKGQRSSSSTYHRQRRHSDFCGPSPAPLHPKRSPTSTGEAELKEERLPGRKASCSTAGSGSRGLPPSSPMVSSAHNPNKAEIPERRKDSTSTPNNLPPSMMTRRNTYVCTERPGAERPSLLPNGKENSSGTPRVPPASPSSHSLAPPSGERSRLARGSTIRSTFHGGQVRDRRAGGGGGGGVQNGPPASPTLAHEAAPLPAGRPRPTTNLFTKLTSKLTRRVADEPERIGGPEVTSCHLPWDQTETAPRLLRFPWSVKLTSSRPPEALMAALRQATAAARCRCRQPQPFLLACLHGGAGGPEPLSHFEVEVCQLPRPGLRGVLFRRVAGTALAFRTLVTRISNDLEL

PIM1 = PIM1 (Homo sapiens, UniProt P11309)
Chain of PIM1 (P11309 whole entry, species assumed): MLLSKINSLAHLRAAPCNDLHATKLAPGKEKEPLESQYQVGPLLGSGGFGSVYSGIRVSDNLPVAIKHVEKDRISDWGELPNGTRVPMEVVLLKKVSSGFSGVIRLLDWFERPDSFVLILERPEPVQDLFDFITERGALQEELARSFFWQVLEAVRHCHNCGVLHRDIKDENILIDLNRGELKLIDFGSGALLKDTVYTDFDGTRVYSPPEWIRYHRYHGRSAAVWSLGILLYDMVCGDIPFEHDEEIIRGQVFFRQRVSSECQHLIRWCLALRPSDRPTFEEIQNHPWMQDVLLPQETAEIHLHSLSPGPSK

MLK1 = MLK1 (Homo sapiens, UniProt P80192)
Chain of MLK1 (P80192 whole entry, species assumed): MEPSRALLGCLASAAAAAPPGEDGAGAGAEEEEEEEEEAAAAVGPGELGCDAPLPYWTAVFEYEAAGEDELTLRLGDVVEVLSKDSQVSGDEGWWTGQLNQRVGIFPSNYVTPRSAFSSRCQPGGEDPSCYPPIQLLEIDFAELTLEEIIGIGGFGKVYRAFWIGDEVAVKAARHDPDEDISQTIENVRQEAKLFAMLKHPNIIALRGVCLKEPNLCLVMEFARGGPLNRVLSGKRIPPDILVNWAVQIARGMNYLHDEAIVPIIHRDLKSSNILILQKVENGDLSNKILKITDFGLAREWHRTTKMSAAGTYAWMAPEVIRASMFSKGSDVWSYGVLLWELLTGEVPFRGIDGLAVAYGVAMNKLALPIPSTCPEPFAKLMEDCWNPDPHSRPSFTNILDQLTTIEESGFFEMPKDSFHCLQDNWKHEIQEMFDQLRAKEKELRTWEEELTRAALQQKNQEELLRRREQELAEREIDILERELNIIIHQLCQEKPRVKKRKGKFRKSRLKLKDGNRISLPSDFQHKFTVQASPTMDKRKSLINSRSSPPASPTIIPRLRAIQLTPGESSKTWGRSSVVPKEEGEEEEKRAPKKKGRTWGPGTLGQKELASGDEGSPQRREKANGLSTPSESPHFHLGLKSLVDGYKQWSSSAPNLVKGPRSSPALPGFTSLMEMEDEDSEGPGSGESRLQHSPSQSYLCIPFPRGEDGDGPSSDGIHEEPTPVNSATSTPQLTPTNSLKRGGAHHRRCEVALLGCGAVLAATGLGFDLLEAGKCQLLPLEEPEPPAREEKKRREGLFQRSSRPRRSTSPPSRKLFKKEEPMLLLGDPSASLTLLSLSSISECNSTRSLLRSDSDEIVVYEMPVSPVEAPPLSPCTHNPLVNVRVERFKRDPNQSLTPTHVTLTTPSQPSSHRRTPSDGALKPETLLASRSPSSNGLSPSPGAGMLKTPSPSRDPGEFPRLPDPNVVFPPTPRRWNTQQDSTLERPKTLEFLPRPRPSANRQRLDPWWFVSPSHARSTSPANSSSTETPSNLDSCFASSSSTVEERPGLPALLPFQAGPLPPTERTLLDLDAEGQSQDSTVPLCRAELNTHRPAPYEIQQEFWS

HIPK2 = HIPK2 (Homo sapiens, UniProt Q9H2X6)
Chain of HIPK2 (Q9H2X6 whole entry, species assumed): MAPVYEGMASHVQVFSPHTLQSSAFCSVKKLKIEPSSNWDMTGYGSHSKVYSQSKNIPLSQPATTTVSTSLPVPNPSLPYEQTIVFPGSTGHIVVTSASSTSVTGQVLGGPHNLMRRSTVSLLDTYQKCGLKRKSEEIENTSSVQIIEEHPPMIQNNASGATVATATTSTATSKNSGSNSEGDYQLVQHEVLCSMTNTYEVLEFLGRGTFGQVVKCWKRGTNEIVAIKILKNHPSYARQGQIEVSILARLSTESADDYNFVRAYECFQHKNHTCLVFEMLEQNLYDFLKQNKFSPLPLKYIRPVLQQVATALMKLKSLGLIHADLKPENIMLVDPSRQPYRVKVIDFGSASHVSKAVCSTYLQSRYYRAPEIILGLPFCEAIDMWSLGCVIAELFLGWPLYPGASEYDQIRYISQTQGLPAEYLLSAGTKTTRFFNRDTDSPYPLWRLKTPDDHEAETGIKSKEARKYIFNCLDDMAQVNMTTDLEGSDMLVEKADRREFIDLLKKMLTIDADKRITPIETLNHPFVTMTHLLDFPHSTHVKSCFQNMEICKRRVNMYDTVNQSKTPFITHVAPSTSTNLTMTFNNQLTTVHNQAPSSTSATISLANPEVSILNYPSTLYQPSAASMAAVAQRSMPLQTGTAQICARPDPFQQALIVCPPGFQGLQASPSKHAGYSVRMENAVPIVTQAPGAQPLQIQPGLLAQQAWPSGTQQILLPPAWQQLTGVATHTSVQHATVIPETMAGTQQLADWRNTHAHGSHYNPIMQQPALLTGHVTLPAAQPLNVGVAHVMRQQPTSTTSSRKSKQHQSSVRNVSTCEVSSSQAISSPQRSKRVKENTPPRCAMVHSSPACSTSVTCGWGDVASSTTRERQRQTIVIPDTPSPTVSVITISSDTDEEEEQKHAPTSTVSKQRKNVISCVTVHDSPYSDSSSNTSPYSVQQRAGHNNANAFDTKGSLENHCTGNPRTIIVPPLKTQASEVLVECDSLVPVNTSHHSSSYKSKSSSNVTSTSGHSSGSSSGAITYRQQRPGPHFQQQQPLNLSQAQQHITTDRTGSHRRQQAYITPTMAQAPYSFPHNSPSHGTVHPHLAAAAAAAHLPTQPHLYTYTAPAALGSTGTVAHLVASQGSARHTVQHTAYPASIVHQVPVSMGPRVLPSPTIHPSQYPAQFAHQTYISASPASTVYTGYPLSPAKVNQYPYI

ZAP70 = molecular target: T3, ZAP70 (Homo sapiens, UniProt P43403)
T3 sequence (P43403 1-619): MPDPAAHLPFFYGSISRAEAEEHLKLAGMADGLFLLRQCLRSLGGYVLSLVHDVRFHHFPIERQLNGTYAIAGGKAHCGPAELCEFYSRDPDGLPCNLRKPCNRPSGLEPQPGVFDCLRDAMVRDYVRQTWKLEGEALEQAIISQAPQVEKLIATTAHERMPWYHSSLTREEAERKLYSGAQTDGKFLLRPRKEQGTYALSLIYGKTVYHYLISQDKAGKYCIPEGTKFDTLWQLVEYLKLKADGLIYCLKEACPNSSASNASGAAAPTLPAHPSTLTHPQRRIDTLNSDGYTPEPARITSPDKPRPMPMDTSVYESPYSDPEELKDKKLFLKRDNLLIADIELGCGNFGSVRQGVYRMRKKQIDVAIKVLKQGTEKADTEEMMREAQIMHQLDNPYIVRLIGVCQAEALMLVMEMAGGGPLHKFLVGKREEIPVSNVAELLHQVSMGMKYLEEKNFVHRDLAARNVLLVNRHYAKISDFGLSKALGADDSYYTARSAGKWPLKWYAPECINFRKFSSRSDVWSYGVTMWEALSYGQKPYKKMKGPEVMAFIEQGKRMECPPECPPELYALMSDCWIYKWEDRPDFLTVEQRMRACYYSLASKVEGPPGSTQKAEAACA

PKBa = PKBa (Homo sapiens, UniProt P31749)
Chain of PKBa (P31749 whole entry): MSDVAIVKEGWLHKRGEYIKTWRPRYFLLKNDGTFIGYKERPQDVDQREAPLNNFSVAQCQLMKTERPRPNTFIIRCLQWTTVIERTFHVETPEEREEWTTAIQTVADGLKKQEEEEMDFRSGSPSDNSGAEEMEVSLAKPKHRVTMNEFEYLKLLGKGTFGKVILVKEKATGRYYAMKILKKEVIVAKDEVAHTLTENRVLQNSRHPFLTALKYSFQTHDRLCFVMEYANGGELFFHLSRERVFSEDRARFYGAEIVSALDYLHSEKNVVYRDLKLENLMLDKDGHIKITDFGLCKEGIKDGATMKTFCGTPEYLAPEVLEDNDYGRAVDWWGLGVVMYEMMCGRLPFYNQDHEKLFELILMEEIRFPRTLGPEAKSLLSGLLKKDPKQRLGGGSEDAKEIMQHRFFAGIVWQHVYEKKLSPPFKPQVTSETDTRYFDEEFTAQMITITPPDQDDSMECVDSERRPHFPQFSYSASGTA

PLK1 = PLK1 (Homo sapiens, UniProt P53350)
Chain of PLK1 (P53350 whole entry, species assumed): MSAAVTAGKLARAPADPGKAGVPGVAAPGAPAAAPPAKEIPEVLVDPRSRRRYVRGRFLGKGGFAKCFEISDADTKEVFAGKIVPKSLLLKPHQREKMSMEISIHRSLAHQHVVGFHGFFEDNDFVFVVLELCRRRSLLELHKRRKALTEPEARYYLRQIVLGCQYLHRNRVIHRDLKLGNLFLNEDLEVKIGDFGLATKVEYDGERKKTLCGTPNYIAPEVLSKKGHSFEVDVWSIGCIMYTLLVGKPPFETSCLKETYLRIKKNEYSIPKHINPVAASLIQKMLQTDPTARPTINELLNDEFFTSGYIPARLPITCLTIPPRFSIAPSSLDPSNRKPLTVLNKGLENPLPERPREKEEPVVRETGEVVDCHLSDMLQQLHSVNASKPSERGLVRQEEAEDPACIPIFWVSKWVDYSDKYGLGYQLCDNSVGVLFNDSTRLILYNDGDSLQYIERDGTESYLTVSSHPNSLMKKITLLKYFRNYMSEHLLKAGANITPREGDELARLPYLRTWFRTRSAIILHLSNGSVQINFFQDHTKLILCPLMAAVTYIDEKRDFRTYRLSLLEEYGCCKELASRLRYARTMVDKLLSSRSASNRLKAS

## NCCCC[C@H](NC(=O)[C@H](CC(=O)O)NC(=O)[C@H](CC(=O)O)NC(=O)[C@H](CC(=O)O)NC(=O)[C@H](CC(=O)O)NC(=O)[C@H](CC(=O)O)NC(=O)[C@@H](CC(=O)O)NC(=O)CCCCCCCn1cnc2c(Br)c(Br)c(Br)c(Br)c21)C(=O)O [TBBI-OcA-(D-Asp)-(L-Asp)5-(L-Lys)-OH] (X1-[dD]DDDDDK-OH)
TLK1
  remaining activity at 1 µM: 107%
MARK4
  remaining activity at 1 µM: 75%
PIM1
  remaining activity at 1 µM: 62%
MLK1
  remaining activity at 1 µM: 112%
HIPK2
  remaining activity at 1 µM: 36%
ZAP70
  remaining activity at 1 µM: 97%
PKBa
  remaining activity at 1 µM: 73%
PLK1
  remaining activity at 1 µM: 18%
